The chains are these.
B1: Partitioning defective protein 6 (Caenorhabditis elegans), Q9NAN2 (parent)
chain: MSYNGSYHQNHHSTLQVKSKFDSEWRRFSIPMHSASGVSYDGFRSLVEKLHHLESVQFTLCYNSTGGDLLPITNDDNLRKSFESARPLLRLLIQRRGESWEEKYGYGTDSDKRWKGISSLMAQKPPKRSYSISNPEDFRQVSAIIDVDIVPEAHRRVRLCKHGQERPLGFYIRDGTSVRVTERGVVKVSGIFISRLVDGGLAESTGLLGVNDEVLEVNGIEVLGKTLDQVTDMMVANAHNLIITVKPANQRNTLSRGPSQQGTPNASEMSAATAAATGGIQRPMKMNGSSDGSYHPKQHDANDSDSGED

In this test the parent is B1. The following applies: with cdc42_caeel cdc-42, Q05062.
cdc42_caeel cdc-42, Q05062, sequence (Q05062 whole entry): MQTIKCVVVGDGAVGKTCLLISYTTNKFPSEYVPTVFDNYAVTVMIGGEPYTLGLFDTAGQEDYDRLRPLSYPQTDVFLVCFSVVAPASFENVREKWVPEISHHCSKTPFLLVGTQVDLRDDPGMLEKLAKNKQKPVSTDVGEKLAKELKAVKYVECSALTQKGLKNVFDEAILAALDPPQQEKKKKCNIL
V141A;S142A;I144A;I145A: the “effect of a mutation on the interaction” value is given as “disrupting interaction”.
As for P135A;D137A;F138A;R139A, the entry is “disrupting interaction”.

For the origin of these results see IntAct's records for PubMed 16996049.
